Measurements published in the Human Domainome abundance scans (Beltran et al. 2025).

B1: Advillin, residues 785 to 819; numbered along this chain, O75366 (parent)
chain: LSEQDFVSVFGITRGQFAALPGWKQLQMKKEKGLF

Variants of: B1
Experiment: abundance fitness (aPCA) (normalised: wild type 0, dead -1); higher = more abundant; growth selection in yeast, the domain comes from the species named
Settings: Homo sapiens

Abundance fitness, by site and new letter:
G11: R -0.513; L -1.05; M -0.986; P -0.797; A -0.485; F 0.179; K -0.453; W -0.846; T -0.547; E -0.65; D -0.647; S -0.353; V -0.537
S8: V -0.117; E 0.119; T -0.024; A 0.052; D -0.081; K 0.156; P -0.506; R 0.023; F -0.476; L -0.238; Y -0.84; W -0.439; G -0.026; N -0.329; M 0.003
Q4: S 0.019; W -0.267; N -0.317; L 0.016; C -0.846; F -0.063; G -0.001; K 0; R -0.11; P -0.076; E 0.018; H -0.277; I 0.237; T -0.202; D -0.592; A -0.064; V 0.002
L1: E 0.694; S -0.135; R -0.156; A -0.322; G -0.051; N -0.078; K -0.266; W -0.079; C -0.279
V9: L -0.131; W -0.684; M -0.184; R -0.162; G -0.286; A -0.222; D -0.443; S -0.456; T -0.141; H 0.018; K -0.04; F -0.422; E -0.149; C -0.527; P -0.632; Y -0.156
V7: G -0.306; T -0.115; L 0.04; K -0.384; F -0.038; D -0.085; A -0.149; Q 0.004; R -0.139; I -0.028; W -0.343; S 0.071; E 0.105; M -0.291
F10: C -0.31; H -0.932; K -0.319; N -0.2; V -0.332; G -0.27; L -0.392; W -0.274; Y -0.016; E -0.285; A -0.398; S -0.383; T -0.367; M -0.305; Q -0.59; P -0.726; D -0.316
E3: W -0.4; A -0.258; P -0.268; F -0.039; T -0.092; G -0.366; D 0.103; Q -0.225; C -0.421; M -0.461; Y -0.543; L -0.304; R -0.476; S -0.183; H -0.323; N 0.165; I -0.175; K -0.409
S2: W -0.305; C -0.175; Y -0.505; L -0.123; T -0.289; D 0.311; R -0.282; G -0.078; Q -0.416; P -0.584; M -0.514; E -0.085; V -0.322; K -0.127
F6: G -1.08; I -0.162; P -0.461; H -0.87; S -0.488; N -0.928; R -0.468; W -0.186; K -0.514; V -1.19; Y -0.224; T -0.183; E -0.906; D -0.831; C 0.06; A -1.28; Q -0.402
I12: G -0.429; H -0.633; A -0.445; E -0.592; K -0.312; D -0.442; L -0.101
D5: S -0.031; V -0.521; P -0.651; L -0.209; Y -0.782; T -0.255; Q -0.204; E -0.073; M -0.332; W -1
